# Assays:
# [1] = pseudovirus neutralization, global sensitivity (≥2 of 6 non-nAbs); settings: glycan lost
# [2] = TZM-bl pseudovirus neutralization ID50; settings: glycan lost
# [3] = pseudovirus neutralization (S4 Table); settings: glycan lost; control: JR-FL parent
substance,measurement,setting,value
ADA Env: N197D,other: neutralisation sensitivity,[1]; control: ADA parent,no change
JR-CSF Env: N197D,other: neutralisation sensitivity,[2]; control: JR-CSF parent,increases
same,other: neutralisation sensitivity,[1]; control: JR-CSF parent,no change
JR-FL Env (gp160∆CT): N160A,other: neutralisation sensitivity,[3],no change
JR-FL Env (gp160∆CT): N332Q,other: neutralisation sensitivity,[3],no change
PVO.4 Env: N197D,other: neutralisation sensitivity,[2]; control: PVO.4 parent,no change
same,other: neutralisation sensitivity,[1]; control: PVO.4 parent,no change

# From article PMC4449185
